# Source: publication doi:10.1101/2024.05.23.595491 (bioRxiv, 2024)
# T1: SH3BP2-FLAG (full-length) (mouse, UniProt Q06649 1-559)
# T1 sequence: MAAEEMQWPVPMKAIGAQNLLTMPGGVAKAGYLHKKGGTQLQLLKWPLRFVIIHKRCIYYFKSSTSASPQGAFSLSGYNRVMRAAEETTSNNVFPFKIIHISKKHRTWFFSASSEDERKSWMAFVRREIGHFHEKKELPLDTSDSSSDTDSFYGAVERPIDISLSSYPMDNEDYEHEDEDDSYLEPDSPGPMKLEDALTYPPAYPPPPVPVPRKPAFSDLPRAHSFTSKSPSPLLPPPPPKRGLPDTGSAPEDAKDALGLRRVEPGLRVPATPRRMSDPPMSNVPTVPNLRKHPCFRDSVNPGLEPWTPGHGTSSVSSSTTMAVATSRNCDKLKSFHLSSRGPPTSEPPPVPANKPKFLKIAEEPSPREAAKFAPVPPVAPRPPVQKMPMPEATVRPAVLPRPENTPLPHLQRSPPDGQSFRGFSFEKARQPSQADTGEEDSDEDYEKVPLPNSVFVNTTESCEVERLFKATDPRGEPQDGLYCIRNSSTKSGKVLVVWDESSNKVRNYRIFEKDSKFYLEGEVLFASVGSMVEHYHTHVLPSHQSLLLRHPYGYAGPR
# B1: GST-mGFP-SH3BP2-FLAG (natural protein)
# chain: T1 sequence
# B2: GST-cytAChRα (domain or fragment)
# chain: NTHHRSPSTHIMPEWVRKVFIDTIPNIMFFSTMKRPSRDKQEKRIFTEDIDISDISGKPGPPPMGFHSPLIKHPEVKSAIEGVKYIAETMKSDQESNNAAEEWKYVAMVMDH
# B3: GST-cytAChRα-mCherry (domain or fragment)
# chain: B2 chain
# What was measured:
# [1] = target: the molecule itself; experiment: sedimentation assay
# [2] = target: T1, SH3BP2-FLAG (full-length); experiment: co-IP
# [3] = target: B1; experiment: recruitment into protein droplets
binder,measurement,setting,value
B1,binding result,[1],binds
B2,binding result,[2],binds
B3,binding result,[3],binds
